This note sets out measurements from patent publication US20220315655A1 (NOVIMMUNE, published 2022).

Assay [1] concerns the target T1, human PD-L1 on cells (hPD-L1-transfected CHO cells; IFNg-induced HT-1080 tumor cells) (human, UniProt Q9NZQ7 19-290).
T1 construct: whole, on cells; The CHO transfectants are negative for human CD47; HT-1080 cells also carry CD47; also called PD-L1+CD47+ HT-1080
Briefly: cell-based competition: hPD-1-moFc binding to IFNg-induced PD-L1+CD47+ HT-1080 cells, CellInsight imaging.

Assay [2] has as its target T2, recombinant mouse PD-L1 soluble protein (mouse, UniProt Q9EP73 19-238, limits assumed, biotinylated).
T2 construct: ELISA and BLI used proteins from different sources; They are kept as one molecule because no limits are stated
Put plainly: statement in the xenograft example; assay not named.

Assay [3] deals with T3, recombinant mouse CD47 soluble protein (mouse, UniProt Q61735 19-140, limits assumed).
T3 sequence (looked up): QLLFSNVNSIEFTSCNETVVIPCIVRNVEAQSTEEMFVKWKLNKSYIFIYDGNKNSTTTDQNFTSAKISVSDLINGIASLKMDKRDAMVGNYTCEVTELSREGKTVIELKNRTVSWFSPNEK
The assay is described as above.

For assay [4], the target named is human CD47 on cells (Raji, Nalm-6, HT-1080 tumor cells; human red blood cells) (human, UniProt Q08722 19-323). Briefly: cell-based or functional assay.
Assay [5] deals with T4, recombinant human CD47 soluble protein (human, UniProt Q08722 19-139).
T4 construct: ELISA and BLI used different preparations; They are kept as one molecule because no limits are stated; also called His-tag human CD47
Briefly: BLI (OctetRED96), His-tag CD47 on HIS1K biosensors, bsAb in solution, 1:1 global fit, 30 C.

The target of assay [6] is T5, recombinant human PD-L1 soluble protein (human, UniProt Q9NZQ7 19-238, biotinylated).
T5 construct: Bought soluble protein; also called hPD-L1; B7-H1
Briefly: BLI (OctetRED96), biotinylated PD-L1 on streptavidin biosensors, bsAb in solution, 1:1 global fit, 30 C.

Assay [7] addresses T6, recombinant cynomolgus monkey PD-L1 soluble protein (cynomolgus monkey, UniProt G7PSE7 19-238, biotinylated).
T6 construct: ELISA and BLI used proteins from different suppliers; They are kept as one molecule because no limits are stated; also called cyno PD-L1; cynomolgus PD-L1
Described as above.

For assay [8], the target named is T2, recombinant mouse PD-L1 soluble protein. The assay is described as above.
Assay [9] has as its target T7, recombinant cynomolgus monkey CD47 soluble protein (cynomolgus monkey, UniProt A0A2K5X523 19-139).
T7 construct: also called cyno CD47; cynomolgus CD47
Put plainly: BLI (OctetRED96); set-up for cynomolgus CD47 not described.

B1: S79 anti-PD-L1 mAb (antibody, human IgG4 S228P, lambda, V domains shown)
VH: not shown
VL: QSALTQPASVSGSPGQSITISCTGTSSDVFRPPLVSWYQQHPGKAPKLMIYFASLRPSGVSNRFSGSKSGNTASLTISGLQAEDEADYYCSSWDHTGDGHVFGGGTKLTVLG
notes: Bivalent monospecific anti-PD-L1 antibody with the common heavy chain and the S79 lambda light chain; also called S79 mAb; S79_Sc3_1G7_VLCL2 aPDL1 IGLV2-23
As for B1, the IC50 in assay [1] was 0.00252 nM.

B2: K38xS28 CD47xPD-L1 bispecific antibody (bispecific antibody, human IgG4 S228P, kappa, lambda)
heavy: not shown
light 1: DIQMTQSPSSLSASVGDRVTITCRASQVIANWLNWYQQKPGKAPKLLIYAGSHLQSGVPSRFSGSGSGTDFTLTISSLQPEDFATYYCQQMHPRAPKTFGQGTKVEIKRTVAAPSVFIFPPSDEQLKSGTASVVCLLNNFYPREAKVQWKVDNALQSGNSQESVTEQDSKDSTYSLSSTLTLSKADYEKHKVYACEVTHQGLSSPVTKSFNRGEC
light 2: not shown
notes: also called K38xS28 bsAb
Consider B2, for which the binding result in [2] and in [3] was “no binding” throughout.

B3: K33xS79 CD47xPD-L1 bispecific antibody (bispecific antibody, human IgG4 S228P, kappa, lambda)
heavy: not shown
light 1: DIQMTQSPSSLSASVGDRVTITCRASQSISSYLNWYQQKPGKAPKLLIYAASSLQSGVPSRFSGSGSGTDFTLTISSLQPEDFATYYCQQFHKRSPQKFGQGTKVEIKRTVAAPSVFIFPPSDEQLKSGTASVVCLLNNFYPREAKVQWKVDNALQSGNSQESVTEQDSKDSTYSLSSTLTLSKADYEKHKVYACEVTHQGLSSPVTKSFNRGEC
light 2: QSALTQPASVSGSPGQSITISCTGTSSDVFRPPLVSWYQQHPGKAPKLMIYFASLRPSGVSNRFSGSKSGNTASLTISGLQAEDEADYYCSSWDHTGDGHVFGGGTKLTVLGQPKAAPSVTLFPPSSEELQANKATLVCLISDFYPGAVTVAWKADSSPVKAGVETTTPSKQSNNKYAASSYLSLTPEQWKSHRSYSCQVTHEGSTVEKTVAPTECS
notes: also called K33xS79 bsAb
As to B3, the “in vitro phagocytosis potency (ADCP of Nalm-6 cells), macrophage donor D#096” value in assay [4] was 29.2. For the same molecule, the “in vitro phagocytosis potency (ADCP of Nalm-6 cells), macrophage donor D#097” value in assay [4] was 16. Further, the “in vitro phagocytosis potency (ADCP of Nalm-6 cells), macrophage donor D#103” value in assay [4] was determined as 7.5. For the same molecule, the binding result in assay [3] was “no binding”. In addition, the Kd in assay [5] stood at 56 nM; in [6], 0.5 nM; in assay [7], 1.35 nM; in assay [8], 0.52 nM. In [1], this molecule had an IC50 of 0.00219 nM.

B4: K106xS79 CD47xPD-L1 bispecific antibody (bispecific antibody, human IgG4 S228P, kappa, lambda)
heavy: not shown
light 1: not shown
light 2: B3 light 2
notes: also called K106xS79 bsAb
Regarding B4, in assay [4], the “in vitro phagocytosis potency (ADCP of Nalm-6 cells), macrophage donor D#096” value was found to be 99.2; the “in vitro phagocytosis potency (ADCP of Nalm-6 cells), macrophage donor D#097” value amounted to 94; the “in vitro phagocytosis potency (ADCP of Nalm-6 cells), macrophage donor D#103” value was found to be 23.5. In [2], the binding result is given as “binds”. For the same molecule, the binding result in [3] is recorded as “no binding”. Moreover, in assay [5], the Kd was found to be 99 nM. This molecule came in with an IC50 in assay [1] of 0.00351 nM.

B5: K38xS79 CD47xPD-L1 bispecific antibody (bispecific antibody, human IgG4 S228P, kappa, lambda)
heavy: not shown
light 1: B2 light 1
light 2: B3 light 2
notes: also called K38xS79 bsAb; K38S79
With B5, in [4], the “in vitro phagocytosis potency (ADCP of Nalm-6 cells), macrophage donor D#096” value worked out at 5.6; the “in vitro phagocytosis potency (ADCP of Nalm-6 cells), macrophage donor D#097” value was 5; the “in vitro phagocytosis potency (ADCP of Nalm-6 cells), macrophage donor D#103” value amounted to 3.2. Also, in assay [2], the binding result is on record as “binds”. Besides, the binding result in assay [3] is listed as “no binding”. In addition, the Kd in [9] is 16 nM. Besides, the Kd in assay [5] was found to be 13.6 nM. In assay [1], the IC50 came out at 0.00083 nM.

As usually defined, the IC50 is the concentration needed to halve the response being measured. As usually defined, the Kd is the free concentration of one partner at which half of the binding sites on the other are occupied at equilibrium, for simple one-to-one binding.
